Experimental data published in patent publication US20210393741A1.

Target: CD91 on macrophages (mouse (C57BL/6 mice)) (UniProt Q91ZX7)
Test: cell-based or functional assay

Chain of UniProt Q91ZX7 (Q91ZX7 20-4545): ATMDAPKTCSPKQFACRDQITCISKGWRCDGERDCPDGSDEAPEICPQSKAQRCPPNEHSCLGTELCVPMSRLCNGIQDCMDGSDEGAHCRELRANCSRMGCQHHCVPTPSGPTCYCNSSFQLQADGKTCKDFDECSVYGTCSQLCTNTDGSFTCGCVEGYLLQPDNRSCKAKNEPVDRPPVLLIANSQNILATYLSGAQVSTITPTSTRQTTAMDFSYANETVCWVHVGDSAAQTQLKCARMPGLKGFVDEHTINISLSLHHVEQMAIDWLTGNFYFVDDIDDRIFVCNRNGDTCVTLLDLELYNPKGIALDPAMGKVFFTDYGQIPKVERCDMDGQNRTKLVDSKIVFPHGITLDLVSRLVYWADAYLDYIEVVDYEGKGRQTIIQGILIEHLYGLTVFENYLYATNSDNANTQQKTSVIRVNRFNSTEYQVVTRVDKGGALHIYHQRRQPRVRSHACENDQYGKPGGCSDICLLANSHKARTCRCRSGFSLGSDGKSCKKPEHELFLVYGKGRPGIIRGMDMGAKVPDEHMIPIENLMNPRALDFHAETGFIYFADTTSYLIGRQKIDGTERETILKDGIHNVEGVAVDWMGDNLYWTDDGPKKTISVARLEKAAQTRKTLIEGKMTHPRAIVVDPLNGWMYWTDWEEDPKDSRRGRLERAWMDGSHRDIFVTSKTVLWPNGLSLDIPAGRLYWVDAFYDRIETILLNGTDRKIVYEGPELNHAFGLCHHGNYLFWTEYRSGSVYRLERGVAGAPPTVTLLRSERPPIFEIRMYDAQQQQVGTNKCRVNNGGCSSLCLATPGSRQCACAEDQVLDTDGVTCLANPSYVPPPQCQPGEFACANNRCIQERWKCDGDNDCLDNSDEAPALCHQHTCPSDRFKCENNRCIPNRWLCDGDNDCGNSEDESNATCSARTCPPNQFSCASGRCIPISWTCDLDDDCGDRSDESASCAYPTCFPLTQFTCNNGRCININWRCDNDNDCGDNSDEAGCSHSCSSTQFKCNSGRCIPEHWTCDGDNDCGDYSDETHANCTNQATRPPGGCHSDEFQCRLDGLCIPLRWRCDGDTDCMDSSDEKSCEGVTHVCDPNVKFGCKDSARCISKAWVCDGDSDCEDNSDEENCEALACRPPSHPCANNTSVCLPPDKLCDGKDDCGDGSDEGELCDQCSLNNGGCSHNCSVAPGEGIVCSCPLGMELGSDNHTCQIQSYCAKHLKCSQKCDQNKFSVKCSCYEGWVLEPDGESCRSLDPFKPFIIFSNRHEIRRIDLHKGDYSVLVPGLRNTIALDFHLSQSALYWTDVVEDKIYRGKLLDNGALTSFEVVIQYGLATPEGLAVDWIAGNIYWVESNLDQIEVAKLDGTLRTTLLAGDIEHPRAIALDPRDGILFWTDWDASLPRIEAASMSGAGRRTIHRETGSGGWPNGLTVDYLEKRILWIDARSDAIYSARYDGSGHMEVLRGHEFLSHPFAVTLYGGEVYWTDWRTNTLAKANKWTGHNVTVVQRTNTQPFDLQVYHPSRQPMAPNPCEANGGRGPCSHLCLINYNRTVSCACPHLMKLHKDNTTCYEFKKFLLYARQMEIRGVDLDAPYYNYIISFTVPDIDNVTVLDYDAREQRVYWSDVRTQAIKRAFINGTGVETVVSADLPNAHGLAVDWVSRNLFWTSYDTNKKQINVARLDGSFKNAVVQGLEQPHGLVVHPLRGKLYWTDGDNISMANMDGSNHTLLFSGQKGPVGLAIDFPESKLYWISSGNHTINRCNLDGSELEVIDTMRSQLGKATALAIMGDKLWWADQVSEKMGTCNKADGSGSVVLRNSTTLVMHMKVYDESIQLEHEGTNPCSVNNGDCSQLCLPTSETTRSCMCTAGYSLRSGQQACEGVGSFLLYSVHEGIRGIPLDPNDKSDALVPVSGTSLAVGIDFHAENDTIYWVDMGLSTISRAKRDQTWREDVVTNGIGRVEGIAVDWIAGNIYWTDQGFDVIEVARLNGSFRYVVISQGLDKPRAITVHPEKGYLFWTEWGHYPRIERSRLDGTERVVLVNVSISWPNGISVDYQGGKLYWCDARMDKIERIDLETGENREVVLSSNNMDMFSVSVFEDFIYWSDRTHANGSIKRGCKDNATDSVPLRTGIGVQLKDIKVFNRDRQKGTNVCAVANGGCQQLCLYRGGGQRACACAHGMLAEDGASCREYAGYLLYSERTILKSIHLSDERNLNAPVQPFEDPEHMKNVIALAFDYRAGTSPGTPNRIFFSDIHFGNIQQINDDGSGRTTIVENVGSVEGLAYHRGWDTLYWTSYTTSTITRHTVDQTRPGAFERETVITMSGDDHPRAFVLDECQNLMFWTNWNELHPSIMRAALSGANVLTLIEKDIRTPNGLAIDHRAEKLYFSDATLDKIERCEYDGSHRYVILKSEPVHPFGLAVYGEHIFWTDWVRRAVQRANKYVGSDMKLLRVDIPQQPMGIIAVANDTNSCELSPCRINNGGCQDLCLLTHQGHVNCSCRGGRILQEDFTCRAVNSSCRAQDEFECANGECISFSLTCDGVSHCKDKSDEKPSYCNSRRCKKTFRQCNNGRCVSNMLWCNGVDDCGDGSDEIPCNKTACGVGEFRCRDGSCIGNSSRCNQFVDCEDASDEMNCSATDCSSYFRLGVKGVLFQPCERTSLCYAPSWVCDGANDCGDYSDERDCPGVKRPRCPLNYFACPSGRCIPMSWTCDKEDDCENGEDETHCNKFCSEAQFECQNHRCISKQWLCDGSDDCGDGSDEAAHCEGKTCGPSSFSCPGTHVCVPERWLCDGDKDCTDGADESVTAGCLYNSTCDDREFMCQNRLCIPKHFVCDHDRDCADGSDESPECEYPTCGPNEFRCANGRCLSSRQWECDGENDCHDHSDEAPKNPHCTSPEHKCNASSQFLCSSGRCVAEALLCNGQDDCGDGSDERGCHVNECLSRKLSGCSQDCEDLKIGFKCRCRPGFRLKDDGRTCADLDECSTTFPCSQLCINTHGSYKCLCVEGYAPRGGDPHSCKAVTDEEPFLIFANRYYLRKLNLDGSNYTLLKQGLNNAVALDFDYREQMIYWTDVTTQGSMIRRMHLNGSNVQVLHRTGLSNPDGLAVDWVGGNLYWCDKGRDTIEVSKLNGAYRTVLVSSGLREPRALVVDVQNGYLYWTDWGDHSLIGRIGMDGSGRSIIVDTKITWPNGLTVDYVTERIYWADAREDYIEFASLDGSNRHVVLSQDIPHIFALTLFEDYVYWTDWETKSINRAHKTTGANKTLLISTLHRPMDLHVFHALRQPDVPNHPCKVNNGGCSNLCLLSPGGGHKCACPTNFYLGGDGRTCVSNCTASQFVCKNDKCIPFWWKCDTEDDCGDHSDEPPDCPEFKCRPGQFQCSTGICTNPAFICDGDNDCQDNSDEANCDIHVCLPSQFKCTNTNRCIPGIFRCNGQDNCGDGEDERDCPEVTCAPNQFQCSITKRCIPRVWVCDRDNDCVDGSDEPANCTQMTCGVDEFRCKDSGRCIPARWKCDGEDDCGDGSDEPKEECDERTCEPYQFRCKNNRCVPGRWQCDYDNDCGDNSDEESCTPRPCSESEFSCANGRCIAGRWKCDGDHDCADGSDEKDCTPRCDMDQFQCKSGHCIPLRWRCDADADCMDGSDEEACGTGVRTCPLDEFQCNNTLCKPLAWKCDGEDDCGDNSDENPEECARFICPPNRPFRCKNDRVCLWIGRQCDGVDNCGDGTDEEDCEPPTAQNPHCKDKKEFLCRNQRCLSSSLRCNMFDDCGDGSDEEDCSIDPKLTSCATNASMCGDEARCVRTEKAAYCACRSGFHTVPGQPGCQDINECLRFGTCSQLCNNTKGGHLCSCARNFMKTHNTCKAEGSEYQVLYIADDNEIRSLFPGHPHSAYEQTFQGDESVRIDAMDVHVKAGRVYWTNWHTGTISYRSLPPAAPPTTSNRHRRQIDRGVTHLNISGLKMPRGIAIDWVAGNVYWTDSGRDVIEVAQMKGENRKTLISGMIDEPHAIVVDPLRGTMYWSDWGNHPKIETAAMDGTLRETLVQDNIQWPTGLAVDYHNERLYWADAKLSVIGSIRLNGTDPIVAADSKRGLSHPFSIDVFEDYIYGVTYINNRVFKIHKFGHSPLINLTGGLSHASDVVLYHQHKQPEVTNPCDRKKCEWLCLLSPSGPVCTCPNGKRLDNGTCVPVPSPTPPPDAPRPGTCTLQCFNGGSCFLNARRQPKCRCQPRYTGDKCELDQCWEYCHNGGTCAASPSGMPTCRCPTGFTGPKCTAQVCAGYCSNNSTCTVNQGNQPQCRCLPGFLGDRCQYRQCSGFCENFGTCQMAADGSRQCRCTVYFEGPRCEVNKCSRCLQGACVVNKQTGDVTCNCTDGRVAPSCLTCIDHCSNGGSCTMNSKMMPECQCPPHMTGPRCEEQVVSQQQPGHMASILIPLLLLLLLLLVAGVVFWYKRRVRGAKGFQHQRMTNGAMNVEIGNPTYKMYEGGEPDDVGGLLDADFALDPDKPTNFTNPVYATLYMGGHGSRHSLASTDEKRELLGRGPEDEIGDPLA

Substance: calreticulin (CRT), recombinant (ligand)
- IFN alpha MFI (Fold Change), RAW264.7 macrophage (M1) cells pulsed with calreticulin 10 ug/ml for 20 min, FACS: 7.5 fold change
- IFN beta MFI (Fold Change), RAW264.7 macrophage (M1) cells pulsed with calreticulin 10 ug/ml for 20 min, FACS: 7 fold change
- IL-12 MFI (Fold Change), RAW264.7 macrophage (M1) cells pulsed with calreticulin 10 ug/ml for 20 min, FACS: 3.5 fold change
- IL-15 MFI (Fold Change), RAW264.7 macrophage (M1) cells pulsed with calreticulin 10 ug/ml for 20 min, FACS: 3.5 fold change
